Test results published in patent US20080050810A1.
Residue numbers refer to the chain shown, from its start.

B1: HuCC49 CDR variant H-2 (antibody, V domains shown)
VH: QVQLVQSGAEVVKPGASVKISCKASGYTFTDHAIHWVKQNPGQRLEWIGWINAGNGNTKYSQKFQGKATLTADTSASTAYVELSSLRSEDTAVYFCTRSLNMAYWGQGTLVTVSS
VL: DIVMSQSPDSLAVSLGERVTLNCKSSQSLLYSGNQKNYLAWYQQKPGQSPKLLIYWASARESGVPDRFSGSGSGTDFTLTISSVQAEDVAVYYCQQYYSYPLTFGAGTKLELK
B2: HuCC49 CDR variant L-1 (antibody, V domains shown)
VH: QVQLVQSGAEVVKPGASVKISCKASGYTFTDHAIHWVKQNPGQRLEWIGYFSPGNDDFKYNERFKGKATLTADTSASTAYVELSSLRSEDTAVYFCTRSLNMAYWGQGTLVTVSS
VL: B1 VL with L29V, G33S, Q35S
B3: humanized monoclonal antibody HuCC49 (parental HuCC49) (antibody, V domains shown)
VH: B2 VH
VL: B1 VL
B4: HuCC49 CDR variant L-1,2 (antibody, V domains shown)
VH: B2 VH
VL: B1 VL with L29V, G33S, Q35S, A59T
B5: HuCC49 SDR variant ^97L (antibody, V domains shown)
VH: B2 VH
VL: B1 VL with T103S
B6: HuCC49 SDR variant ^60-62,64H (antibody, V domains shown)
VH: B2 VH with N61S, E62Q, R63K, K65Q
VL: B1 VL
B7: HuCC49 variant ^97L1,2 (antibody, V domains shown)
VH: B2 VH
VL: B1 VL with L29V, G33S, Q35S, A59T, T103S
B8: HuCC49 variant MAb ^97L/^60-62,64H (antibody, V domains shown)
VH: B2 VH with N61S, E62Q, R63K, K65Q
VL: B1 VL with T103S
B9: HuCC49 variant MAb ^97L1,2/^60-62,64H (antibody, V domains shown)
VH: B2 VH with N61S, E62Q, R63K, K65Q
VL: B1 VL with L29V, G33S, Q35S, A59T, T103S
B10: HuCC49 CDR variant L-2 (antibody, V domains shown)
VH: B2 VH
VL: B1 VL with A59T
B11: HuCC49 CDR variant H-3 (antibody, V domains shown)
VH: QVQLVQSGAEVVKPGASVKISCKASGYTFTDHAIHWVKQNPGQRLEWIGYFSPGNDDFKYNERFKGKATLTADTSASTAYVELSSLRSEDTAVYFCTRGGYYGSGSGSNYWGQGTLVTVSS
VL: B1 VL
B12: HuCC49 CDR variant L-3 (antibody, V domains shown)
VH: B2 VH
VL: B1 VL with Y100T, L102Y, T103S
B13: HuCC49 CDR variant H-1 (antibody, V domains shown)
VH: B2 VH with D31S, H32Y, I34M
VL: B1 VL

biological target: mouse anti-idiotypic MAb AI49-1; assay: competition RIA vs 125I-CC49 on AI49-1-coated wells

In the case of B1, the fold more competitor for 50% inhibition than HuCC49 is reported as 4 to 15 fold.

biological target: mouse anti-idiotypic MAb AI49-3; assay: competition RIA vs 125I-CC49 on AI49-3-coated wells

Work on B1 yielded a fold more competitor for 50% inhibition than HuCC49 of 4 to 15 fold.

biological target: TAG-72 positive bovine submaxillary mucin (BSM) (bovine); assay: relative affinity constant from competition RIA on BSM

B2 and B4 are the same in fold less Ka than HuCC49: 2 fold for the first, 2 fold for the second.

First: B1
Second: B7
The fold less Ka than HuCC49 of the first is higher: 300 fold for the first, 2 to 3 fold for the second.

B9 showed a fold less Ka than HuCC49 of 3 fold.

B3 and B5 are within 1.5-fold of each other in Ka: 3.2e+08 M⁻¹ for the first, 3.6e+08 M⁻¹ for the second.

First: B6
Second: B7
The Ka of the first is 1.6-fold higher: 2.2e+08 M⁻¹ for the first, 1.4e+08 M⁻¹ for the second.

Binder B8 has a Ka of 5.48e+08 M⁻¹.

biological target: anti-idiotypic antibodies in the serum of one patient who had received ^177Lu-CC49 (Example V, patient not named); assay: size-exclusion HPLC competition vs 125I-HuCC49 + patient serum

Going from B2 to B1, the amount of competitor for 50% inhibition of complex formation rises from 0.7 Tg to > 10 Tg.

Binder B11 has an amount of competitor for 50% inhibition of complex formation of 0.4 Tg.

Work on B10 yielded a fold better competition than HuCC49 of 2 fold.

biological target: anti-CC49 variable region antibodies in the serum of patient six; assay: HPLC, serial dilutions of cold competitor vs 125I-HuCC49 + CP serum

Work on B3 yielded an amount of competitor for 25% competition of 60 ng.

Binder B3 has an amount of competitor for 50% competition of 250 ng.

B9 was tested, and the percent competition at 1 Tg was < 25%.

biological target: anti-CC49 variable region antibodies in the serum of patient six; assay: HPLC, 125I-HuCC49 + serum + 5 Tg competitor; fewer complexes = competitor bound

First: B2
Second: B3
The percent of complexes of the first is higher: 16.9% for the first, 1.5% for the second.

Going from B4 to B10, the percent of complexes falls from 15.7% to 3%.

First: B12
Second: B13
The percent of complexes of the first is higher: 33.5% for the first, 5.8% for the second.

Going from B1 to B11, the percent of complexes falls from 29.7% to 6.7%.

biological target: anti-CC49 variable region antibodies in the serum of patient three; assay: as above

First: B2
Second: B3
The percent of complexes of the first is higher: 12.2% for the first, 0% for the second.

Going from B4 to B10, the percent of complexes falls from 24.5% to 3.4%.

Compared with B12, B13 is lower in percent of complexes: 48.2% for the first, 3.9% for the second.

First: B1
Second: B11
The percent of complexes of the first is higher: 32.5% for the first, 5.1% for the second.

biological target: anti-CC49 variable region antibodies in the serum of patient one; assay: as above

Going from B2 to B3, the percent of complexes falls from 16% to 0%.

Going from B4 to B10, the percent of complexes falls from 24.6% to 2.7%.

First: B12
Second: B13
The percent of complexes of the first is higher: 34.8% for the first, 10.2% for the second.

Compared with B1, B11 is lower in percent of complexes: 32.7% for the first, 7.3% for the second.

biological target: anti-CC49 variable region antibodies in the serum of patient two; assay: as above

First: B2
Second: B3
The percent of complexes of the first is higher: 10.1% for the first, 0.5% for the second.

Going from B4 to B10, the percent of complexes falls from 19.4% to 4.4%.

Going from B12 to B13, the percent of complexes falls from 37.6% to 7%.

Going from B1 to B11, the percent of complexes falls from 24.7% to 8.2%.

biological target: anti-CC49 variable region antibodies in the serum of patient four; assay: as above

Compared with B2, B3 is lower in percent of complexes: 9.8% for the first, 2.6% for the second.

Going from B4 to B10, the percent of complexes falls from 12.6% to 2.7%.

Compared with B12, B13 is lower in percent of complexes: 22.4% for the first, 3.3% for the second.

First: B1
Second: B11
The percent of complexes of the first is higher: 12.7% for the first, 3.7% for the second.

biological target: anti-CC49 variable region antibodies in the serum of patient five; assay: as above

Compared with B2, B3 is lower in percent of complexes: 14.3% for the first, 3% for the second.

Going from B4 to B10, the percent of complexes falls from 20.2% to 2.4%.

Going from B12 to B13, the percent of complexes falls from 46.7% to 3.5%.

First: B1
Second: B11
The percent of complexes of the first is higher: 36.6% for the first, 4.6% for the second.
